Key:
Test in all cases: SEC-MALS; Superdex 200 5/150 GL; 100 mM Tris-HCl pH 8.0, 150 mM NaCl, 1 mM EDTA, 10% (v/v) glycerol; 0.15 mL/min; 90 µL of each sample at 1.6 mg/mL injected
[1] = biological target: Plastid-specific ribosomal protein 1a (PSRP1a) of Physcomitrium patens, mature form (Physcomitrium patens)
[2] = biological target: Plastid-specific ribosomal protein 1b (PSRP1b) of Physcomitrium patens, mature form (Physcomitrium patens)
[3] = biological target: the molecule itself

**Q.** “Plastid-specific ribosomal protein 1a (PSRP1a) of Physcomitrium patens, mature form (natural protein)” was tested. Which stoichiometry N [1] did it give?
**A.** 2

**Q.** With “Plastid-specific ribosomal protein 1b (PSRP1b) of Physcomitrium patens, mature form (natural protein)” as the molecule, how does the stoichiometry N [2] read?
**A.** 2

B1: Bacillus subtilis long-form hibernation-promoting factor (BsHPF) (natural protein, UniProt P28368 1-189, looked up)
chain: MNYNIRGENIEVTPALKDHVERKIGKLERYFDHSVDADVNVNLKFYNDKESKVEVTIPMTDLALRSEVHNEDMYNAIDLATNKLERQIRKHKTKVNRKFREQGSPKYLLANGLGSDTDIAVQDDIEEEESLDIVRQKRFNLKPMDSEEAILQMNMLGHNFFVFTNAETNLTNVVYRRNDGKYGLIEPTE
notes: Long-form hibernation-promoting factor (LHPF) of Bacillus subtilis, amplified from genomic DNA; predicted mass of the construct 24.2 kDa; Dimeric control protein of the SEC-MALS experiment; also called Bacillus subtilis LHPF
**Q.** B1 was tested. Which “stoichiometry N” value [3] did it give?
**A.** 2

From paper PMC12567329, “Chloroplast Hibernation-Promoting Factor PSRP1 Prevents Ribosome Degradation Under Darkness Independently of 100S Dimer Formation” (Plants, 2025)
